# Measured values as given in US20250000976A1 (NATIONAL RESEARCH COUNCIL OF CANADA, published 2025).
# B1: hBCMA-H2 (VHH)
# VHH: QVKAEESGGGLVRPGDSLRLTCTISGRTSNNFVMAWFRRTPGKEREYVATRVWSGSTPYYHDSVKGRFTISIDDDKNTAYLQMNSLKPEDTAVYYCAATKDIMSRSYDYWGLGTQVTVSS
# modifications: single biotin on the C-terminal AviTag
# notes: also called VHH-H2; not shown: C-terminal His tag and AviTag biotinylation signal from pMRO vector
# B2: hBCMA-VcMRo3 (V3) (VHH)
# VHH: EVQLEQSGGGLVQTGDSLRLTCTIPGRASNHFVMAWFRRAPGKEREFVATRVWSGGSPYYSDSVKGRFAIAIDNAKNTAYLQMNSLKPEDTAVYYCAATKDIMSRSYDYWGLGTQVTVSS
# modifications: single biotin on the C-terminal AviTag
# notes: also called hBCMA-V3; not shown: C-terminal His tag and AviTag biotinylation signal from pMRO vector
# B3: hBCMA-E7 (VHH)
# VHH: QVQLVESGGGLVQTGDSLRLACTISGRATDHFVMAWFRRAPGKEREYVATRVWSGGSPYYLDSVKGRFAIAIDNAKNTAYLQMNNLKPEDTAVYYCAATKDIMSRSYDYWGLGTQVTVSS
# modifications: single biotin on the C-terminal AviTag
# notes: Llama VHH made in E. coli BL21(DE3), IMAC purified, monomeric SEC fraction used; also called VHH-E7; VHH # 1-B1; not shown: C-terminal His tag and AviTag biotinylation signal from pMRO vector
# B4: hBCMA-VcMRo8(VF7/VF8) (VHH)
# VHH: QVQLVESGGGLVQPGGSLRLSCAASGTIFSRNALAWFRQAPGKQRELVAHITIGGTTVYKDSVKGRFTISRDNAKNTVYLQMDALKPEDTAVYYCNADPEGSWNWVRRGDYWGQGTQVTVS
# modifications: single biotin on the C-terminal AviTag
# notes: also called V8; hBCMA-V8; not shown: C-terminal His tag and AviTag biotinylation signal from pMRO vector
# B5: hBCMA-A6 (VHH)
# VHH: QVQLVESGGGLVQPGGSLRLSCVASGSIFDAYNMGWYRQAPGKQRELVAAISSAGTTFYRDSVKGRFTVSRNNAKNTMYLQMDRLRPEDTAVYDCNGAPWGDAPVKVEDWGQGTQVTVSS
# modifications: single biotin on the C-terminal AviTag
# notes: also called VHH-A6; not shown: C-terminal His tag and AviTag biotinylation signal from pMRO vector
# B6: hBCMA-H4 (VHH)
# VHH: QVQLVESGGGLVQPGGSLRLSCAASGDSFGAYAMGWYRQAPGKQRELVAAISSAGNTFYRDSVKGRFTVSRNNAKNAMYLQMDRLKPEDTAVYQCNGAPWADEPVKVWNWGLGTQVTVSS
# modifications: single biotin on the C-terminal AviTag
# notes: also called VHH-H4; not shown: C-terminal His tag and AviTag biotinylation signal from pMRO vector
# How the values were obtained:
# BCMA_B6x Met1_Ala43 = target: T1, BCMA_B6x Met1_Ala43 (human, UniProt Q02223); assay: yeast cell ELISA, sample BCMA_B6x Met1_Ala43
# T1 construct: limits given in the sample name
# T1 yeast-displayed fusion (looked up): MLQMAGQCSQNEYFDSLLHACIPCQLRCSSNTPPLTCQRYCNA
# Method: (§1) The YSD vector (pPNL6) was from The Pacific Northwest National Laboratory, USA. […] The HRP activity was assayed with substrate TMB (tetramethyl benzidine) according to the manufacture's conditions and read at OD₄₅₀.
# (§2) The assays were performed as described in the Materials and Method, and OD₄₅₀ was measured. Note that OD₄₅₀ reads equal or less than 0.100 were scored as zero for clarity.
# BCMA_B8x Met1_Pro23 = target: T2, BCMA_B8x Met1_Pro23 (human, UniProt Q02223); assay: yeast cell ELISA, sample BCMA_B8x Met1_Pro23
# T2 construct: limits given in the sample name
# T2 yeast-displayed fusion (looked up): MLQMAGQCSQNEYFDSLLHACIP
# Method: as §1, §2
# BCMA_B10x Gly6_Ala43 = target: T3, BCMA_B10x Gly6_Ala43 (human, UniProt Q02223); assay: yeast cell ELISA, sample BCMA_B10x Gly6_Ala43
# T3 construct: limits given in the sample name
# T3 yeast-displayed fusion (looked up): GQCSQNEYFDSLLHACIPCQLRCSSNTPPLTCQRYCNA
# Method: as §1, §2
# BCMA_B3x Ile22_Ala54 = target: T4, BCMA_B3x Ile22_Ala54 (human, UniProt Q02223); assay: yeast cell ELISA, sample BCMA_B3x Ile22_Ala54
# T4 construct: limits given in the sample name
# T4 yeast-displayed fusion (looked up): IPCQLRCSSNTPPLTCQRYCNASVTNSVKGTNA
# Method: as §1, §2
# BCMA_B4x Arg27_Ala54 = target: T5, BCMA_B4x Arg27_Ala54 (human, UniProt Q02223); assay: yeast cell ELISA, sample BCMA_B4x Arg27_Ala54
# T5 construct: limits given in the sample name
# T5 yeast-displayed fusion (looked up): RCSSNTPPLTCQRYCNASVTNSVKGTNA
# Method: as §1, §2
# [1] = target: T6, BCMA_B13x Gly6 (C8S)_Pro23 (human, UniProt Q02223); assay: yeast cell ELISA, sample BCMA_B13x Gly6 (C8S)_Pro23
# T6 construct: limits and substitution as printed in the sample name
# T6 yeast-displayed fusion (looked up): GQSSQNEYFDSLLHACIP
# Method: as §1, §2
# hBCMA-ECD-FC5VHH [2] = target: T7, hBCMA-ECD-FC5VHH (human, UniProt Q02223 1-54, biotinylated in vivo ; biotinylated in vivo on the tag of the carrier part, which is not in the letters); assay: SPR (Biacore T200), VHH 20-500 nM over BCMA-ECD surface, 25 C
# T7 construct: Made in HEK-293 cells, monomeric SEC fraction; The methods say about 500 RU captured on an SA chip; the results say immobilised on a CM5 chip; also called hBCMA-FC5; human BCMA-ECD; not shown: FC5 VHH carrier, any linker, and the His and biotinylation tags
# T7 sequence: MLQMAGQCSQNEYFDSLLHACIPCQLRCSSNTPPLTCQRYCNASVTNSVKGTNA
# Method: (§3) For surface Plasmon resonance, 15 selected VHHs were passed though size exclusion columns, Superdex 75 (GE Healthcare), respectively, in 10 mM HEPES, pH 7.4, containing 150 mM NaCl, 3 mM EDTA, monomeric sdAb fractions were collected and protein concentrations were determined by measuring absorbance at 280 nm (A280). Analysis were performed with Biacore T200 instrument (GE Healthcare). All measurements were carried out at 25° C. in 10 mM HEPES, pH 7.4, containing 150 mM NaCl, 3 mM EDTA and 0.005% surfactant P20 (GE Healthcare). Approximately 500 RUs of the recombinant monomeric BCMA-ECD (obtained after SEC purification of the BCMA-ECD-FC5VHH) were captured on SA sensor chip (GE Healthcare) at a flow rate of 5 uL/min. Various concentration of the monomeric VHHs (20-500 nM) were injected over BCMA-ECD surface, respectively using an SA surface as a reference at a flow rate of 40 μL/min. Surfaces were generated by washing with running buffer. Data were analysed with BIAevaluation 4.1 software.
# (§4) The monomeric fraction of all 15 VHHs were used for SPR experiment where the human BCMA-ECD or mouse BCMA was immobilized onto the CM5 dextran chip and various VHH concentration (20-500 nM) were passed over the sensor chip.
# [3] = target: T8, human BCMA on target cells (Raji, Ramos, Jeko-1, RPMI8226) (human, UniProt Q02223 1-184); assay: flow cytometry on RPMI8226 cells (BCMA-high); VHH detected with AlexaFluor647 anti-VHH antibodies
# T8 construct: also called TNFRSF17; BCMA-positive target cells
# T8 sequence: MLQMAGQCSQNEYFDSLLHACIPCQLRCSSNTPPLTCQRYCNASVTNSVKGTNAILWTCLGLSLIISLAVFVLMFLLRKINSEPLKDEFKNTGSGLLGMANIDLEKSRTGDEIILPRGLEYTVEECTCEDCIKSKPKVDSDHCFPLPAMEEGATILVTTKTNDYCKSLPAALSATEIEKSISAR
# Method: Purified VHH were used to assess the target specificity of the sdBCMA Ab by flow cytometry. The highly BCMA expressing human myeloma cell line RPM18226, the BCMA-low human Burkitt's lymphoma cell line Raji, and the BCMA-negative Jurkat human T cell leukemia cell line were incubated with 5 fold dilution of biotin labelled sdBCMA VHH from 7.5-0.06 μg/mL. The binding of the BCMA-targeted VHH to cell surface BCMA was detected by flow cytometry using a mixture of two broad reactivity mouse anti-VHH antibodies conjugated with AlexaFluor647.
# hBCMA-ECD-FC5VHH [4] = target: T7, hBCMA-ECD-FC5VHH; assay: SPR, 1:1 binding model
# Method: as §3, §4
# mBCMA-ECD-FC5VHH = target: T9, mBCMA-ECD-FC5VHH (mouse, UniProt O88472 1-49, biotinylated in vivo ; biotinylated in vivo on the tag of the carrier part, which is not in the letters); assay: SPR (Biacore T200), VHH over mouse BCMA-ECD surface, 25 C
# T9 construct: also called mouse BCMA; murine BCMA ECD; not shown: FC5 VHH carrier, any linker, and the His and biotinylation tags
# T9 sequence (O88472 1-49 limits assumed): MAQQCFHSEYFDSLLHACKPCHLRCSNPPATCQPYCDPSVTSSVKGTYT
Binder,OD450 (BCMA_B6x Met1_Ala43),OD450 (BCMA_B8x Met1_Pro23),OD450 (BCMA_B10x Gly6_Ala43),binding result (BCMA_B3x Ile22_Ala54),binding result (BCMA_B4x Arg27_Ala54),binding result [1],Kd (hBCMA-ECD-FC5VHH [2]) [pM],koff (hBCMA-ECD-FC5VHH [2]) [s⁻¹],kon (hBCMA-ECD-FC5VHH [2]) [M⁻¹ s⁻¹],EC50 (read off the curve) [3] [pM],Kd (hBCMA-ECD-FC5VHH [4]) [pM],Kd (mBCMA-ECD-FC5VHH) [pM],koff (mBCMA-ECD-FC5VHH) [s⁻¹],kon (mBCMA-ECD-FC5VHH) [M⁻¹ s⁻¹],binding result (BCMA_B8x Met1_Pro23)
B1,2.41,2.89,2.6,no binding,no binding,no binding,80.1,0.000343,4.28e+06,,,,,,
B2,2.65,2.09,2.69,no binding,no binding,,564,0.000239,424000,~2000,,,,,
B3,2.19,2.45,1.8,no binding,no binding,,46.2,0.000179,3.88e+06,~900,46.2,67500,0.0514,762000,
B4,2.33,,2.32,no binding,no binding,no binding,84.6,0.00125,1.48e+07,,,,,,no binding
B5,2.8,,1.66,no binding,no binding,no binding,4620,0.0109,2.36e+06,,4000,,,,no binding
B6,2.62,,2.23,no binding,no binding,no binding,379,0.000509,1.34e+06,,,,,,no binding
